Test [1] concerns the target mouse serum albumin (mouse) (UniProt P07724). The experiment in a line: SPR Biacore 3000; mouse albumin against human/rhesus albumin as reference. A general note: In SPR one partner is held on a chip, and binding of the other changes the refractive index at the surface.
The target of test [2] is human serum albumin (human) (UniProt P02768). The experiment in a line: SPR Biacore 3000, albumin amine-coupled on CM5 chip, nanobody concentration series.
For test [3], the target named is rhesus serum albumin (rhesus) (UniProt Q28522). The description is as above.
rhesus serum albumin (rhesus), sequence (Q28522 17-600 limits assumed): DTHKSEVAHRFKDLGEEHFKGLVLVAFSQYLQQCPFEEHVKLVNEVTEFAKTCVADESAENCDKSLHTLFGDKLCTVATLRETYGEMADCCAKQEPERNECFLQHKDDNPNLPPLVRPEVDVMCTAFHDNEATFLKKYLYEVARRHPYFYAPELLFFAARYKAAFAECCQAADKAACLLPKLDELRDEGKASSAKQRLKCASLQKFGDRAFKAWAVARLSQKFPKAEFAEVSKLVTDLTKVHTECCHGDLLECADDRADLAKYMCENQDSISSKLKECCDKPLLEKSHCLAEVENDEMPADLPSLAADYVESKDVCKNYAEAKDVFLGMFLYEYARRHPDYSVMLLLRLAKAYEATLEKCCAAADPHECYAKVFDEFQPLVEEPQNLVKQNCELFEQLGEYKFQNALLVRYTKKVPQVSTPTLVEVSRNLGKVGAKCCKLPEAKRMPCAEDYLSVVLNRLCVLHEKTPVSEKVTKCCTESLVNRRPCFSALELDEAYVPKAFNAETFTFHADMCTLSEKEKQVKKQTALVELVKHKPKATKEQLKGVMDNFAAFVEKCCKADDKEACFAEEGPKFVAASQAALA
For test [4], the target named is mouse serum albumin (mouse) (UniProt P07724). The test is described as above.
mouse serum albumin (mouse), sequence (P07724 25-608 limits assumed): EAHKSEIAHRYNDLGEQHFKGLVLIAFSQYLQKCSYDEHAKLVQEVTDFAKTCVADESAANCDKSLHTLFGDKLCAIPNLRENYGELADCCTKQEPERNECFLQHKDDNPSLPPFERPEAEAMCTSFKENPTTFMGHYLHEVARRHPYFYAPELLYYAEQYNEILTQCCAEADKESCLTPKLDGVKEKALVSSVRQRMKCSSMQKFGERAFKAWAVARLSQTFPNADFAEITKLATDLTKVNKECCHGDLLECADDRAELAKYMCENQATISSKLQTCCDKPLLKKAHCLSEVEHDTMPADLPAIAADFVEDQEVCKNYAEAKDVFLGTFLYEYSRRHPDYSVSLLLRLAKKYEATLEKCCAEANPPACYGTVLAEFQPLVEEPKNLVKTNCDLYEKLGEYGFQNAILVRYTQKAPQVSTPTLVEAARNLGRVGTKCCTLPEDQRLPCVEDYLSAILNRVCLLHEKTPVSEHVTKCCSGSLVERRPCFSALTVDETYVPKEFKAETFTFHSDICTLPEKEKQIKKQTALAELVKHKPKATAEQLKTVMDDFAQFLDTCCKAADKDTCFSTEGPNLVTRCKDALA

PMP6A6 (ALB1) (VHH), sequence (VHH): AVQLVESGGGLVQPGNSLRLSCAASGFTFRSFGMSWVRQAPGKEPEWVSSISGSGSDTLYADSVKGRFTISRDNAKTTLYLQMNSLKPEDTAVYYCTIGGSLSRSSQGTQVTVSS

Take PMP6A6 (ALB1) (VHH): in test [1], the factor of difference in affinity for human/rhesus versus mouse serum albumin was determined as 12 fold. Further, in test [2], the dissociation constant Kd came out at 0.57 nM, the koff was 0.00063 s⁻¹ and the on-rate constant (kon) stood at 1.11e+06 M⁻¹ s⁻¹. In test [3], this substance registered a Kd of 0.52 nM, a koff of 0.000546 s⁻¹ and a kon of 1.05e+06 M⁻¹ s⁻¹. In test [4], this substance came in with an equilibrium dissociation constant (Kd) of 6.5 nM, a koff of 0.00725 s⁻¹ and a kon of 1.11e+06 M⁻¹ s⁻¹.

The term Kd denotes the equilibrium constant for the complex coming apart. A lower Kd goes with higher affinity. By koff is commonly meant the first-order rate constant of dissociation. A word on the kon: it is the rate constant with which the complex forms. Read a low kon as slower complex formation.

The values above are taken from patent US20100113339A1.
